Source: publication PMC7575002

Biological target: T1, major tail protein gpV of bacteriophage lambda, in free tails (bacteriophage lambda), P03733
T1 chain: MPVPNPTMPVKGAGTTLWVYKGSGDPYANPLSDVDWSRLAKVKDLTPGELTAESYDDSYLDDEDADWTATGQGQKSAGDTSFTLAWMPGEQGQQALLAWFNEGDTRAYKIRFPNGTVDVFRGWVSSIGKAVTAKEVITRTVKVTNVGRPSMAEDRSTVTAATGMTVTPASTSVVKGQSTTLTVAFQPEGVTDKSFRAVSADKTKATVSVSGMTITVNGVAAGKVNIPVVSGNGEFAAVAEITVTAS
Test: cryo-EM structure
Details: remark: other sources report otherwise

B1: major tail protein gpV of bacteriophage lambda, in free tails, P03733 1-246 (natural protein)
chain: MPVPNPTMPVKGAGTTLWVYKGSGDPYANPLSDVDWSRLAKVKDLTPGELTAESYDDSYLDDEDADWTATGQGQKSAGDTSFTLAWMPGEQGQQALLAWFNEGDTRAYKIRFPNGTVDVFRGWVSSIGKAVTAKEVITRTVKVTNVGRPSMAEDRSTVTAATGMTVTPASTSVVKGQSTTLTVAFQPEGVTDKSFRAVSADKTKATVSVSGMTITVNGVAAGKVNIPVVSGNGEFAAVAEITVTAS
stoichiometry N: 6
